From article doi:10.1101/2021.07.31.454588

Target: mCherry-LacRnls-IE1 1–540 (human herpesvirus 6B (HHV-6B))
Test: LacO/LacR tethering assay

NBS1 (nibrin, NBN), endogenous (from UniProt O60934 1-754) (natural protein)
percent of mCherry-LacRnls fusion foci colocalized with NBS1 at the LacO array: 81%
